26 sequences from the Immune Epitope Database (IEDB) can be followed below.

What is called Kd is a measure of binding affinity in units of concentration. By IC50 is commonly meant the concentration that inhibits the measured activity by half. Low values mean inhibition by little substance, high ones a need for much substance.

The target of one assay is HLA-B*51:01. Description: IEDB peptide-MHC binding, purified MHC/competitive/radioactivity; filed as Kd, often an IC50 or EC50 that approximates it; ≥ and ≤ were set here for values at or beyond the usual limits of such assays. To be noted: source organism: Dengue virus 3 Martinique/1243/1999.
In the next assay the target is HLA-B*08:01. The description is as above. As to conditions: source organism: Dengue virus 3 Martinique/1243/1999.
Another assay has as its target HLA-B*35:01. The description is as above.
In assay [1] the target is HLA-B*15:01. The description is as above.
In a further assay the target is HLA-A*30:02. Described as above.
The target in another assay is HLA-B*40:01. Described as above.
Assay [2] has as its target HLA-A*24:02. Description: IEDB peptide-MHC binding, purified MHC/competitive/fluorescence; ≥ and ≤ were set here for values at or beyond the usual limits of such assays.
Another assay concerns the target HLA-A*02:01. The assay is described as above. As to conditions: source organism: Zaire ebolavirus.
The target of the next assay is HLA-B*39:01. Description: IEDB peptide-MHC binding, purified MHC/competitive/fluorescence; filed as Kd, often an IC50 or EC50 that approximates it; ≥ and ≤ were set here for values at or beyond the usual limits of such assays. As to conditions: source organism: Escherichia coli.
For assay [3], the target named is HLA-B*15:01. The description is as above.
For the next assay, the target named is HLA-A*11:01. Description: IEDB peptide-MHC binding, purified MHC/competitive/radioactivity; filed as Kd, often an IC50 or EC50 that approximates it; ≥ and ≤ were set here for values at or beyond the usual limits of such assays. As to conditions: source organism: SARS coronavirus Tor2.
A further assay has as its target HLA-A*68:01. The description is as above. To be noted: source organism: SARS coronavirus Tor2.
The next assay addresses HLA-A*33:01. The description is as above. To be noted: source organism: SARS coronavirus Tor2.
For assay [4], the target named is HLA-A*24:02. The assay is described as above.
The target in a further assay is HLA-A*23:01. The assay is described as above. As to conditions: source organism: SARS coronavirus Tor2.
Another assay has as its target HLA-A*01:01. Described as above.
Another assay addresses HLA-A*26:01. The assay is described as above.
The target of the next assay is HLA-A*03:01. The assay is described as above. To be noted: source organism: SARS coronavirus Tor2.
Another assay concerns the target HLA-A*29:02. Described as above.
In the next assay the target is HLA-A*31:01. The description is as above. To be noted: source organism: SARS coronavirus Tor2.
The next assay deals with HLA-B*44:03. The description is as above.
In a further assay the target is HLA-B*46:01. Description: IEDB peptide-MHC binding, purified MHC/competitive/fluorescence; filed as Kd, often an IC50 or EC50 that approximates it; ≥ and ≤ were set here for values at or beyond the usual limits of such assays. To be noted: source organism: Entamoeba histolytica HM-1:IMSS.
In the next assay the target is HLA-B*44:02. Description: IEDB peptide-MHC binding, purified MHC/competitive/radioactivity; filed as Kd, often an IC50 or EC50 that approximates it; ≥ and ≤ were set here for values at or beyond the usual limits of such assays. To be noted: source organism: Homo sapiens.
The target of another assay is HLA-A*30:01. The assay is described as above. To be noted: source organism: Mammarenavirus brazilense.
Another assay concerns the target HLA-A*32:01. The description is as above. As to conditions: source organism: Mammarenavirus brazilense.
[5] abbreviates: source organism: Dengue virus 4 Philippines/H241/1956.
The mark [6] stands for this setting: source organism: Vaccinia virus WR.
Setting [7] is: source organism: Dengue virus 2 Jamaica/1409/1983.
The mark [8] stands for this setting: source organism: Dengue virus 3 Martinique/1243/1999.
Where [9] appears, read: source organism: Zaire ebolavirus.
The mark [10] stands for this setting: source organism: SARS coronavirus Tor2.
[11] abbreviates: source organism: Vaccinia virus Copenhagen.
[12] abbreviates: source organism: Mammarenavirus brazilense.

Regarding LATLRKLCI, the Kd with HLA-B*51:01 stood at 2530 nM; in the assay with HLA-B*08:01, 359 nM. As to MAVLFVVTL, in the assay with HLA-B*35:01 (setting [5]), the Kd came out at 359 nM. For SLKSLYEAF, the Kd with HLA-B*15:01 [1] (setting [6]) amounted to 20.3 nM.

With WHYDQDHPY, the Kd was 7590 nM with HLA-B*35:01 (setting [7]) and not below 39300 nM with HLA-A*30:02 (setting [7]). With GPTPELEEEM, the Kd with HLA-B*35:01 (setting [8]) was 4170 nM. Turning to SETFSMGLL, in the assay with HLA-B*40:01 (setting [5]), the Kd stood at 3.53 nM.

Consider FIFNIIMSF, for which the Kd with HLA-B*15:01 [1] (setting [6]) came to 399 nM. Take REPVNATED: the IC50 with HLA-A*24:02 [2] (setting [9]) is 12700 nM; with HLA-A*02:01, not below 383000 nM. Consider RHSDTAKAF, for which the Kd with HLA-B*39:01 was 268 nM; with HLA-B*15:01 [3] (source organism: Escherichia coli), not below 20000 nM. Take SMMGFKMNY: the Kd with HLA-A*11:01 was found to be 10.6 nM; with HLA-A*68:01 it was 10600 nM; in the assay with HLA-A*33:01, 775 nM; in the assay with HLA-A*24:02 [4] (setting [10]) it was 9360 nM; with HLA-A*23:01 it was 7550 nM; with HLA-A*30:02 (setting [10]), 10.3 nM. Also, the Kd with HLA-A*01:01 (setting [10]) is 3960 nM; with HLA-A*26:01 (setting [10]), 3900 nM; with HLA-A*03:01 it was 4.89 nM; with HLA-A*29:02 (setting [10]) it was 13.9 nM; in the assay with HLA-A*31:01, 213 nM. With SADSFLLML, the IC50 is not below 177000 nM with HLA-A*24:02 [2] (setting [9]) and not below 613000 nM with HLA-A*02:01.

Regarding AETQHGTTV, the Kd with HLA-B*40:01 (setting [5]) worked out at 20.8 nM; with HLA-B*44:03 (setting [5]) it was 1460 nM. Regarding VATTFITPM, in the assay with HLA-B*35:01 (source organism: Dengue virus 2 Peru/IQT2913/1996), the Kd amounted to 146 nM.

On to QMAMTDTTPF, for which the Kd with HLA-B*15:01 [1] (setting [7]) was determined as 7.23 nM; in the assay with HLA-A*24:02 [4] (setting [7]), 3560 nM. KVSCSMLEF: the Kd with HLA-B*15:01 [1] (setting [11]) was found to be 0.84 nM. Take FFQVIAKRY: in the assay with HLA-B*15:01 [3] (source organism: Yersinia pestis Antiqua), the Kd is not below 20000 nM. For IAKGIDAEF, the Kd with HLA-B*46:01 came to 168 nM. As to AKNISGQSP, in the assay with HLA-A*24:02 [2] (setting [9]), the IC50 was not below 552000 nM. Regarding AELLNIPFLY, the Kd with HLA-B*44:03 (source organism: Homo sapiens) came out at 2.7 nM; with HLA-B*44:02 it was 5 nM; in the assay with HLA-A*29:02 (source organism: Homo sapiens), 108 nM.

As to IPEPDRQRTP, the Kd with HLA-B*35:01 (source organism: Dengue virus 1 Brazil/97-11/1997) was found to be 23.1 nM. For the sequence IMSKDKPTI, the IC50 in the assay with HLA-A*24:02 [2] (source organism: West Nile virus) was found to be 1980 nM. VEDSRFWEL: in the assay with HLA-B*40:01 (setting [7]), the Kd is 4280 nM. As for LECSPRTGL, the Kd with HLA-B*40:01 (setting [8]) amounted to 599 nM. Consider KVNACHHNY, for which the Kd is 501 nM with HLA-A*30:01; 445 nM in the assay with HLA-A*32:01; 11.7 nM in the assay with HLA-A*30:02 (setting [12]); 3840 nM with HLA-A*01:01 (setting [12]); not below 77900 nM with HLA-A*26:01 (setting [12]); 115 nM with HLA-A*29:02 (setting [12]).

With RIKQRGILGY, the results for the Kd with HLA-B*15:01 [1] (setting [7]) and with HLA-A*30:02 (setting [7]) were 46.6 nM and 20.4 nM, respectively. For VLYSYILFL, in the assay with HLA-B*15:01 [1] (setting [11]), the Kd was found to be 559 nM.
